The target of assay [1] is human FcγRIIA_131H (CD32a) extracellular domain (human) (UniProt P12318). The experiment in a line: SPR, antibody captured on Protein A, steady state, 25 °C. On the technique in general: In SPR one partner is held on a chip, and binding of the other changes the refractive index at the surface.
Assay [2] has as its target human FcγRIIA_131R (CD32a) extracellular domain (human) (UniProt P12318). Described as above.
In assay [3] the target is human FcγRIIIA_158V (CD16a) extracellular domain (human) (UniProt P08637). The assay is described as above.
Chain of human FcγRIIIA_158V (CD16a) extracellular domain (human) (P08637 17-208 F176V): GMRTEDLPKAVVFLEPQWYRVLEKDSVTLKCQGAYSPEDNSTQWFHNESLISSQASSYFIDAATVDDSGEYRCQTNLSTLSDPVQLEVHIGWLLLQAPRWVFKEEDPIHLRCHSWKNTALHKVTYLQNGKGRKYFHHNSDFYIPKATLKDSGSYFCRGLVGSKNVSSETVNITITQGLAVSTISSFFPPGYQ
For assay [4], the target named is human FcγRIIb (CD32b) extracellular domain (human) (UniProt P31994). Described as above.
Chain of human FcγRIIb (CD32b) extracellular domain (human) (P31994 43-217): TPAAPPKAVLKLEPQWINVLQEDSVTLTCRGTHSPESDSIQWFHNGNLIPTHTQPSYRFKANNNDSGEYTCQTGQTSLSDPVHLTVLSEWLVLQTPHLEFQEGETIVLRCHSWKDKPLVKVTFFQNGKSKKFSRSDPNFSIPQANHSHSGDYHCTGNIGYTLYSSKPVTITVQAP
The target of assay [5] is human FcγRI (CD64) extracellular domain (human) (UniProt P12314). The experiment in a line: SPR, antibody captured on Protein A, receptor ECD as analyte, 25 °C.
Chain of human FcγRI (CD64) extracellular domain (human) (P12314 16-292): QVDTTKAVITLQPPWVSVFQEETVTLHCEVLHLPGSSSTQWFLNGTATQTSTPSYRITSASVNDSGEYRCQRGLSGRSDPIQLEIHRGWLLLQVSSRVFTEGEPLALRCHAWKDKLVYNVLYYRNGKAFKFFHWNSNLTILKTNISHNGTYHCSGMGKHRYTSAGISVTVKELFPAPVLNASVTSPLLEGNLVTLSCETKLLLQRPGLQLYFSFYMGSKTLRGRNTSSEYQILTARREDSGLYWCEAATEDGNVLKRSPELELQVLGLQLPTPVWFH
Assay [6] deals with human FcγRIIIA_158F (CD16a) extracellular domain (human) (UniProt P08637). The experiment in a line: SPR, antibody captured on Protein A, steady state, 25 °C.
Chain of human FcγRIIIA_158F (CD16a) extracellular domain (human) (P08637 17-208): as the sequence (P08637 17-208 F176V) above, with V160F counted along it

Chain of human FcγRIIA_131H (CD32a) extracellular domain (human) (P12318 34-217): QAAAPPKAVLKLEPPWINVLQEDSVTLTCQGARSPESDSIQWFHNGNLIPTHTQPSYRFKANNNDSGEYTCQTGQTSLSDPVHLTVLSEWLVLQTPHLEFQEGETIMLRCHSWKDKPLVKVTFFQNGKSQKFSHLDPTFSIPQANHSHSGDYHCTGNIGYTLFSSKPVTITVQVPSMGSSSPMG
Chain of human FcγRIIA_131R (CD32a) extracellular domain (human) (P12318 34-217 H167R): as the sequence (P12318 34-217) above, with H134R counted along it

Regarding Hu IgG4 SP (antibody), the dissociation constant (Kd) in assay [1] was found to be 5310 nM; in assay [2] it was 2310 nM; in assay [3] it was 7350 nM; in assay [4] it was 2780 nM; in assay [5], 0.419 nM.

In the case of Hu IgG1 (antibody), the Kd in assay [1] is 680 nM; in assay [2], 740 nM; in assay [4] it was 3110 nM; in assay [6], 1290 nM; in assay [5] it was 0.0521 nM.

As a reminder, the Kd is a measure of binding affinity in units of concentration. Lower therefore signals a tighter complex.
